Assay: soluble on expression in E. coli; label from the status in PepcDB or PDB records

Row | Sequence | soluble on expression in E. coli
1 | MSLSTKNHFIFPTYVQMYPYSKDRPFLKQVREKLRYYGYKWLYQKQCSQLVDFLNTETQWQSLFTQDYYRTNTILTTFCDKRFSASERLTAITENLRLAEEKMGRSLCQQLLDQQHIVLTQLTEDLRLSLSINHIDPFEGYFSINIRNQNNERVYDSSFTFLSPNKLLIASIQGPSSDNAQELVKQATKALHGMRPMFMLVNGFKMLAEKWQCELVGIPHKAQGKYRLSARSKILFNYDEFWQENQGEYRHNYWQLPLHIERKQLEDIASKKRSMYRKRYEMLDQMALDIQQLEGHHHHHH | soluble
2 | QTGVQTNTPFGSGEDSIRCRQNISLFTSYAKTGNYKDAYDFWEKAYEECPASTKNIYIYGVKISEWRLQNEQDPAKRQQIIDKILKLYDDRVKYFGEDPKYGTDYIMASKISDYMQYMGDKTDYDKVYEWIKPTIDQHGENATPRALFYYAYSSLNKAIRNEAWHETYIKDYTFASQAMEKQLEVADEKGKEFIQPLKTQIDELFAQSGLADCNTLVKMYGDKLEENKTDTTFLKNMLGMFHASDCETHPLYFQANK | not soluble
3 | MSLKNYQSSDPFKEARVSSGCAHMNDQDDPVTMILRLKDVRKTAHNWKTFQSGAAPGRIVIPSEVNIRDTRQIPFEVDPPLHGAFRSLLDPWFKRPLKAQYQETLAQQVNALVDDVLKADSIDVVEDFALCLQSRALTLLLNTDADEADTWIGWGTHVFRSEDDPLDGDKAAILYDYIDEKIKASSPNPEGDLYSVLLAAEVEGKKLTHEEIKGIMILTFAGGRDTVINAVTNTVSYFAQHPESLARLRNEPEIIGRAIEELIRYFTPLTQMGRVVTQDTQVCEHAIKADSRVSLCWASANRDESVFESPNDVILDRKLNPHVSFGFSHHNCLGATHARQIMRVLIETLMAKVGSIDIIDFEENIEYLGEFERKVGFHKLHVNIHPREGHHHHHH | soluble
4 | MKLASYLQENIVVEKNGRFTIPIKKQYRSKVSGTVIDTSSSGATVFMEPKEVGALYEQLDDLLAAESYEVETILYTLTASVLAIEKELHLAMDIMHHYDVLFAKAKYGRSIDGVIPLEHHHHHH | not soluble
5 | MGSDKIHHHHHHMSRQEQTPLFSGVVAHAKHNPVQFHIPGHKKGAGMDPAFRSFIGDNALSIDLINIGPLDDLHHPHGIIKEAQELAAEAFGADHTFFSVQGTSGAIMTMIMSVVGPGEKIIVPRNVHKSIMSAIVFSGATPVFIHPEIDPLLGISHGITIEAVEKALDAHPDAKGLLVINPTYFGIAANLKKIVELCHSRDVPVLVDEAHGVHIHFHEALPLSAMQAGADMAATSVHKLGGSLTQSSILNVREGLVSAKRVQTIISMLTTTSTSYLLLASLDAARKHLATNGRDLIGYTIQLADQARDQINAIDGLYCVGKEILGTIATYDYDPTKLIISVKNLGITGYDAEVWLREHYQIEVELSDLYNILCIVSFGDTEREMDLLVKALSELADLHKHGICERSPVSVYVPNIPTLAMSPRDAFYAETEVVPFEDSVGRTIAEFIMVYPPGIPILIPGEIITESNLAYIRENNRAGLPVQGPEDDTFRTLRVIKEHEAIR | not soluble
6 | MSLSDPNTSGSGVVGESSGVRVAIEGCGHGCLHSIYASVERAAALKGWDGVDLLIIGGDFQAVRNSNDMACMSVPNKYKEIGDFHEYYSGQRTAPYLTIFVGGNHEASNHLFELYYGGWVAPNIYYMGAANVLRFGPLRIAGLSGIWKGRDYRKPHFERLPYNDDDIKSIYHVRELDVRKLLQVRTQIDVGLSHDWPRQIEYCGDWQQLFRAKPLFRRDSQNGTLGSTAAEYVLNRLRPAYWFSAHLHVKFAASVQHGPQEVVPNRQYGLDGASLTSMLSETEEASRQTGYSQAEAEPNAHAVSETGTTEEGHHHHHH | soluble
7 | MGSDKIHHHHHHMILLNYSQCFCLHNESRQKIAPSCWLNIGVHYMRIQQLRDLLEYVANCRLDMAQLYGRLNNQADSARVKMMLEYFESHQKHVAEKLRDYMDEAPVRVLDTWYKDFVFEDFTKRCQDTMLPANMNEDDVLNLHLDLENRLIGLLEKTVNSTTAEDARTALEGLIRVEKIQQQRLVHSTIRMDDI | not soluble
8 | MGSDKIHHHHHHMLTCDVFFASKNKKGEEVCGDSIKVKRESEKIVVSVSDGLGSGIKASILSTLTATIASTMLMNGLPVTDVFRTILATLPICRVRKISYSNLCSVVCDFKNNTCTVVEYEFPVVMLFKGERRVFPEKQGLEIEGKKVFVWQFRSEAGTLLLLATDGLSQAGMGTDLFPLGFGVENIEKEMKHLLKNHVSPENIVRHFVKLAEKLDQEVRGDDTLVACLNFREKRILNLFVGPPEDRKKDEEYVRTFLSLPGKKIVCGGTTGQIFERVTGKKVEIDLYTLSENSPPVGYMEGIDLMTEGIVTLTQVFRYLEGQSEELGYGAKFIVKSLLEADEINFFVGRAINPAHQNPLFSHDISLKFRLVKDIAQILREKGKIVNVQYC | not soluble
9 | MFEWIKTFIAVYETKNFSTAAKQLYISQPTVSLQIKKLEQHFSIKLFYRNGKQSVIPTKEADFLYPKMLSIIESLTTSFAQAAEKENFKEDCIIASSNTVAIYLLPDIMESLVTAFPLINFSIQLMNSNEVVDMVQNNHAHIGLIEKPIETKNLHKEIVYEDQLVLAGDAASKFWLLREKNSGLRFFNELYLNEHSINLPIIELNNNEVLLQLLKNNIGQSIVSRLSISDEIPWQPIDQSFASRKIFIVQTDHHANTSFSEVYNRIVEKIRERQT | not soluble
10 | GPGSMERVTYARTGALRSTYAGLPVTKERLVTAAPAKWFPLLTTVPQRVLKSISDSDGVDGSLLGFLPIAFVFEELRKHLSDFTQHAAFLRAVLQWYHQTAGDTLESEIATDKVEIFQPYLPAYRLRVLKEGETVATFNDISRRAVTLMGKDRGINDIPLDHPSCSAQHAALEVNFVHRNSEPFQQRLHTLMQEEYRNINWSSPDEVGKLCAHALQLMREFGGDEDMWLMELQVVDLGSTNGTNLNGELLRPLERATVIEGDVLTFGYSTRKYLIVRA | soluble
11 | MKKGIDIGGTFIKVLWEDGKKEKHYIKDLKKDREALMEKIREVIKAGNPSGVGIAVAGFTSLNGIVYKSPNIPALDKTDFRKVLEDINIPFVVGNDVNLGAFGEWYYDYRDSKILLLVAVGTGLGTGLVYKGEVFFGVCGSALEMGHHTVKKGGELCNCGRKGCWEAYCSSYAIEREYKKLTGRTLKDYEIAEKAKEGEEEALKVVESFKDYLITGLMNGVHIFNPDRIVLAGGVIETFKEFLRDVPEKVKEISEELPALCLKISFSRAGEFMGARGALAYALKYLLEHHHHHH | soluble
12 | MSLRPDMSRLTMIRFLTEIDYPPFNFTGADGNPAGFNVDLARALCDEIKITCTVQMRKFETLLDALASNRGDAIIASLAVTPQTRTKLDFTDPYYRTPARFVARKDAVMPEMRPEFLEGRKVGAVAGSAHEAYLKAMFTDAELHSYPNAEALRAALKRGEVDFIFGDAISLAFWINGTDSENCCAFSGAPFLESRYFGEGVGIAVRKGNDTLRQALNWALFRVWEKGQYTDLWLRYFSVSEGHHHHHH | soluble
13 | MSLRRFKFQYKETIVTILTENEEFYKTAVKAILEARSEIEDYILHNPDFFTSYEPIECSGGEIINRMCNAAKIAGVGPMAAVAGTIAAYAVEKMIDAGAKLAVVDNGGDIVIHSDRELLVGIYPSKLAFKVPPVDYLAICTSSGKIGHSVSFGKADAATVVARDASVADALATALGNLIGDFGKKELEKTVSEFYGKYSDFVEGILVVKDELVALAGNLPSLAFAESKEDLITKGEGHHHHHH | soluble
14 | MGSDKIHHHHHHMKIDMRNISKSFGTNKVLEKIDLELQSGQIHALMGENGAGKSTLMNILTGLFPASTGTIYIDGEERTFSNPQEAEEFGISFIHQEMNTWPEMTVLENLFLGREIKTTFGLLNQKLMRQKALETFKRLGVTIPLDIPIGNLSVGQQQMIEIAKSLLNQLSILVMDEPTAALTDRETENLFRVIRGLKQEGVGVVYISHRMEEIFKITDFVTVMRDGVIVDTKETSLTNSDELVKKMVGRKLEDYYPEKHSEIGPVAFEVSNLCGDNFEDVSFYVRKGEILGFSGLMGAGRTEVMRTIFGIDKKKSGKVKIDDQEITITTPSQAIKQGIGFLTENRKDEGLILDFNIKDNMTLPSTKDFSKHGFFDEKTSTTFVQQLINRLYIKSGRPDLEVGNLSGGNQQKVVLAKWIGIAPKVLILDEPTRGVDVGAKREIYQLMNELADRGVPIVMVSSDLPEILGVSDRIMVMHEGRISGELSRKEADQEKVMQLATGGK | not soluble
